Reference: FireProtDB (doi:10.1074/jbc.m112.408906)

B1: Myocilin, Q99972 (parent)
chain: MRFFCARCCSFGPEMPAVQLLLLACLVWDVGARTAQLRKANDQSGRCQYTFSVASPNESSCPEQSQAMSVIHNLQRDSSTQRLDLEATKARLSSLESLLHQLTLDQAARPQETQEGLQRELGTLRRERDQLETQTRELETAYSNLLRDKSVLEEEKKRLRQENENLARRLESSSQEVARLRRGQCPQTRDTARAVPPGSREVSTWNLDTLAFQELKSELTEVPASRILKESPSGYLRSGEGDTGCGELVWVGEPLTLRTAETITGKYGVWMRDPKPTYPYTQETTWRIDTVGTDVRQVFEYDLISQFMQGYPSKVHILPRPLESTGAVVYSGSLYFQGAESRTVIRYELNTETVKAEKEIPGAGYHGQFPYSWGGYTDIDLAVDEAGLWVIYSTDEAKGAIVLSKLNPENLELEQTWETNIRKQSVANAFIICGTLYTVSSYTSADATVNFAYDTGTGISKTLTIPFKNRYKYSSMIDYNPLEKKLFAWDNLNMVTYDIKLSKM

Variants of: B1
Settings: Homo sapiens, pH 6, Thermal, CD, Sodium acetate 10mM, reversible: no, structure 4WXQ, whole UniProt chain shown

In the case of MRFFCARCCSFGPEMPAVQLLLLACLVWDVGARTAQLRKANDQSGRCQYTFSVASPNESSCPEQSQAMSVIHNLQRDSSTQRLDLEATKARLSSLESLLHQLTLDQAARPQETQEGLQRELGTLRRERDQLETQTRELETAYSNLLRDKSVLEEEKKRLRQENENLARRLESSSQEVARLRRGQCPQTRDTARAVPPGSREVSTWNLDTLAFQELKSELTEVPASRILKESPSGYLRSGEGDTGCRELVWVGEPLTLRTAETITGKYGVWMRDPKPTYPYTQETTWRIDTVGTDVRQVFEYDLISQFMQGYPSKVHILPRPLESTGAVVYSGSLYFQGAESRTVIRYELNTETVKAEKEIPGAGYHGQFPYSWGGYTDIDLAVDEAGLWVIYSTDEAKGAIVLSKLNPENLELEQTWETNIRKQSVANAFIICGTLYTVSSYTSADATVNFAYDTGTGISKTLTIPFKNRYKYSSMIDYNPLEKKLFAWDNLNMVTYDIKLSKM [G246R], the Tm (CaCl2 1mM) is reported as 42.5 °C, the “change of melting temperature, mutant - wild type (higher = more stable)” value (“change of melting temperature, mutant” below) (CaCl2 1mM) is reported as -10.5 °C and the Tm (CaCl2 10mM) is reported as 50.6 °C. The “change of melting temperature, mutant” value (CaCl2 10mM) was -9 °C.

With MRFFCARCCSFGPEMPAVQLLLLACLVWDVGARTAQLRKANDQSGRCQYTFSVASPNESSCPEQSQAMSVIHNLQRDSSTQRLDLEATKARLSSLESLLHQLTLDQAARPQETQEGLQRELGTLRRERDQLETQTRELETAYSNLLRDKSVLEEEKKRLRQENENLARRLESSSQEVARLRRGQCPQTRDTARAVPPGSREVSTWNLDTLAFQELKSELTEVPASRILKESPSGYLRSGEGDTGCGELVWVREPLTLRTAETITGKYGVWMRDPKPTYPYTQETTWRIDTVGTDVRQVFEYDLISQFMQGYPSKVHILPRPLESTGAVVYSGSLYFQGAESRTVIRYELNTETVKAEKEIPGAGYHGQFPYSWGGYTDIDLAVDEAGLWVIYSTDEAKGAIVLSKLNPENLELEQTWETNIRKQSVANAFIICGTLYTVSSYTSADATVNFAYDTGTGISKTLTIPFKNRYKYSSMIDYNPLEKKLFAWDNLNMVTYDIKLSKM [G252R] the Tm (CaCl2 1mM) was 43 °C, the “change of melting temperature, mutant” value (CaCl2 1mM) was -10 °C and the Tm (CaCl2 10mM) was 51.5 °C. The “change of melting temperature, mutant” value (CaCl2 10mM) was -8.1 °C.

For MRFFCARCCSFGPEMPAVQLLLLACLVWDVGARTAQLRKANDQSGRCQYTFSVASPNESSCPEQSQAMSVIHNLQRDSSTQRLDLEATKARLSSLESLLHQLTLDQAARPQETQEGLQRELGTLRRERDQLETQTRELETAYSNLLRDKSVLEEEKKRLRQENENLARRLESSSQEVARLRRGQCPQTRDTARAVPPGSREVSTWNLDTLAFQELKSELTEVPASRILKESPSGYLRSGEGDTGCGELVWVGEPLTLRTAETITGKYGVWMGDPKPTYPYTQETTWRIDTVGTDVRQVFEYDLISQFMQGYPSKVHILPRPLESTGAVVYSGSLYFQGAESRTVIRYELNTETVKAEKEIPGAGYHGQFPYSWGGYTDIDLAVDEAGLWVIYSTDEAKGAIVLSKLNPENLELEQTWETNIRKQSVANAFIICGTLYTVSSYTSADATVNFAYDTGTGISKTLTIPFKNRYKYSSMIDYNPLEKKLFAWDNLNMVTYDIKLSKM [R272G], the Tm (CaCl2 1mM) was 41 °C, the “change of melting temperature, mutant” value (CaCl2 1mM) was -12 °C and the Tm (CaCl2 10mM) was 48.6 °C. For the same variant, the “change of melting temperature, mutant” value (CaCl2 10mM) was -11 °C.

For MRFFCARCCSFGPEMPAVQLLLLACLVWDVGARTAQLRKANDQSGRCQYTFSVASPNESSCPEQSQAMSVIHNLQRDSSTQRLDLEATKARLSSLESLLHQLTLDQAARPQETQEGLQRELGTLRRERDQLETQTRELETAYSNLLRDKSVLEEEKKRLRQENENLARRLESSSQEVARLRRGQCPQTRDTARAVPPGSREVSTWNLDTLAFQELKSELTEVPASRILKESPSGYLRSGEGDTGCGELVWVGEPLTLRTAETITGKYGVWMRAPKPTYPYTQETTWRIDTVGTDVRQVFEYDLISQFMQGYPSKVHILPRPLESTGAVVYSGSLYFQGAESRTVIRYELNTETVKAEKEIPGAGYHGQFPYSWGGYTDIDLAVDEAGLWVIYSTDEAKGAIVLSKLNPENLELEQTWETNIRKQSVANAFIICGTLYTVSSYTSADATVNFAYDTGTGISKTLTIPFKNRYKYSSMIDYNPLEKKLFAWDNLNMVTYDIKLSKM [D273A], the Tm (CaCl2 1mM) was 21.7 °C, the “change of melting temperature, mutant” value (CaCl2 1mM) was -31.3 °C and the Tm (CaCl2 10mM) was 21.1 °C. For the same variant, the “change of melting temperature, mutant” value (CaCl2 10mM) was -38.5 °C.

For MRFFCARCCSFGPEMPAVQLLLLACLVWDVGARTAQLRKANDQSGRCQYTFSVASPNESSCPEQSQAMSVIHNLQRDSSTQRLDLEATKARLSSLESLLHQLTLDQAARPQETQEGLQRELGTLRRERDQLETQTRELETAYSNLLRDKSVLEEEKKRLRQENENLARRLESSSQEVARLRRGQCPQTRDTARAVPPGSREVSTWNLDTLAFQELKSELTEVPASRILKESPSGYLRSGEGDTGCGELVWVGEPLTLRTAETITGKYGVWMRDPKPTYPYTQETTWRIDTVGTDVRQVFEYDLISQFMQGYPSKVHILPRPLKSTGAVVYSGSLYFQGAESRTVIRYELNTETVKAEKEIPGAGYHGQFPYSWGGYTDIDLAVDEAGLWVIYSTDEAKGAIVLSKLNPENLELEQTWETNIRKQSVANAFIICGTLYTVSSYTSADATVNFAYDTGTGISKTLTIPFKNRYKYSSMIDYNPLEKKLFAWDNLNMVTYDIKLSKM [E323K], the Tm (CaCl2 1mM) was 44 °C, the “change of melting temperature, mutant” value (CaCl2 1mM) was -9 °C and the Tm (CaCl2 10mM) was 50.3 °C. The “change of melting temperature, mutant” value (CaCl2 10mM) was -9.3 °C.

For MRFFCARCCSFGPEMPAVQLLLLACLVWDVGARTAQLRKANDQSGRCQYTFSVASPNESSCPEQSQAMSVIHNLQRDSSTQRLDLEATKARLSSLESLLHQLTLDQAARPQETQEGLQRELGTLRRERDQLETQTRELETAYSNLLRDKSVLEEEKKRLRQENENLARRLESSSQEVARLRRGQCPQTRDTARAVPPGSREVSTWNLDTLAFQELKSELTEVPASRILKESPSGYLRSGEGDTGCGELVWVGEPLTLRTAETITGKYGVWMRDPKPTYPYTQETTWRIDTVGTDVRQVFEYDLISQFMQGYPSKVHILPRPLESTGAVVYSGSLYFQGAESRTVIRYELNTETVKAEKEIPGAVYHGQFPYSWGGYTDIDLAVDEAGLWVIYSTDEAKGAIVLSKLNPENLELEQTWETNIRKQSVANAFIICGTLYTVSSYTSADATVNFAYDTGTGISKTLTIPFKNRYKYSSMIDYNPLEKKLFAWDNLNMVTYDIKLSKM [G364V], the Tm (CaCl2 1mM) was 45 °C, the “change of melting temperature, mutant” value (CaCl2 1mM) was -8 °C and the Tm (CaCl2 10mM) was 51.9 °C. The “change of melting temperature, mutant” value (CaCl2 10mM) was -7.7 °C.
